Measured values: paper PMC9574740
Where two headings read alike, the source gives them in different places.

How the values were obtained:
Assay in all cases: crystal structure
[1] = biological target: Chaetomium thermophilum Ahp1, wild type (Chaetomium thermophilum)
[2] = biological target: Chaetomium thermophilum Ahp1 C30S (Chaetomium thermophilum)
[3] = biological target: Chaetomium thermophilum Ahp1 C30S (Chaetomium thermophilum); remark: listed apart in the source

Substance	stoichiometry N [1]	stoichiometry N [2]	stoichiometry N [3]
Chaetomium thermophilum Ahp1, wild type (enzyme)	2	–	–
Chaetomium thermophilum Ahp1 C30S (enzyme)	–	2	2
